Measured values from patent publication US20240167070A1 (NANYANG TECHNOLOGICAL UNIVERSITY, published 2024).
Starred links: 1 amine or outer side, 2 acyl side, 3 side chain; linkers in the order of their positions; H or OH if unused. Non-standard residues stand in square brackets, D forms with d. Primed or numbered codes have the meaning given here. No end group written: not given here. Asn(OH)″ = N^γ-hydroxy-L-asparagine (L-aspartic acid β-hydroxamate), O=C(C[C@H](N[*:1])C(=O)[*:2])NO; Asn(OH) = N-gamma-hydroxy-L-asparagine, O=C(C[C@H](N[*:1])C(=O)[*:2])NO[*:3]

T1: matrix metalloprotease 2 (MMP2) (UniProt P08253 110-660, limits assumed)
T1 construct: also called matrix metalloproteinases 2
T1 sequence (looked up): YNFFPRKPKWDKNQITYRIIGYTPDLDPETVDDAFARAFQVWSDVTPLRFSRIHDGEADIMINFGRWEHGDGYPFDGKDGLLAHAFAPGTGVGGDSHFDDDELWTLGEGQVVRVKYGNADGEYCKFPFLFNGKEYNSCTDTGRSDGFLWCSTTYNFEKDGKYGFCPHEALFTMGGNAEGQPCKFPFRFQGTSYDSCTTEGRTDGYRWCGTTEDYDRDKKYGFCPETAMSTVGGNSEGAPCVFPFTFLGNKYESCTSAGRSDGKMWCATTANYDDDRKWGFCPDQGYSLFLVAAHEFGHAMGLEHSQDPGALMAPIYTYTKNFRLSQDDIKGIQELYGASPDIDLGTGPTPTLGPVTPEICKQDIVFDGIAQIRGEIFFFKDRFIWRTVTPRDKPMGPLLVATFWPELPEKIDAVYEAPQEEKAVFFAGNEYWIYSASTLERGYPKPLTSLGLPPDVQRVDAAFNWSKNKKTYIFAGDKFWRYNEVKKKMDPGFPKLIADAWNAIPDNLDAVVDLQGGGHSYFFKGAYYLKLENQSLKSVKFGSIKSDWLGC

B1: cyclo[…(OH)ALMPSGYM] (peptide)
peptide: cyclo(ATSGISYGQ[Asn(OH)]ALMPSGYM)
SMILES: CC[C@H](C)[C@@H]1NC(=O)CNC(=O)[C@H](CO)NC(=O)[C@H]([C@@H](C)O)NC(=O)[C@H](C)NC(=O)[C@H](CCSC)NC(=O)[C@H](Cc2ccc(O)cc2)NC(=O)CNC(=O)[C@H](CO)NC(=O)[C@@H]2CCCN2C(=O)[C@H](CCSC)NC(=O)[C@H](CC(C)C)NC(=O)[C@H](C)NC(=O)[C@H](CC(=O)NO)NC(=O)[C@H](CCC(N)=O)NC(=O)CNC(=O)[C@H](Cc2ccc(O)cc2)NC(=O)[C@H](CO)NC1=O
notes: also called peptide 14
B2: cyclic MCoTI-II, [GGVCPKILKKCRRDSDCPGACICRGNGYCGSGSD] (peptide)
peptide: cyclo(GGVCPKILKKCRRDSDCPGACICRGNGYCGSGSD)
modifications: not fully specified (bridges); also: three disulfide bonds, pairing not given here
notes: also called MCoTI-II 20; cyclo-MCoTI-II
B3: cyclo[…(OH)ALMPSGA] (peptide)
peptide: cyclo(GSGISYGQ[Asn(OH)]ALMPSGA)
SMILES: CC[C@H](C)[C@@H]1NC(=O)CNC(=O)[C@H](CO)NC(=O)CNC(=O)[C@H](C)NC(=O)CNC(=O)[C@H](CO)NC(=O)[C@@H]2CCCN2C(=O)[C@H](CCSC)NC(=O)[C@H](CC(C)C)NC(=O)[C@H](C)NC(=O)[C@H](CC(=O)NO)NC(=O)[C@H](CCC(N)=O)NC(=O)CNC(=O)[C@H](Cc2ccc(O)cc2)NC(=O)[C@H](CO)NC1=O
notes: also called peptide 13
B4: cyclo[SGISYGQN(OH)ALMPSG] (peptide)
peptide: cyclo(SGISYGQ[Asn(OH)″]ALMPSG)
SMILES: CC[C@H](C)[C@@H]1NC(=O)CNC(=O)[C@H](CO)NC(=O)CNC(=O)[C@H](CO)NC(=O)[C@@H]2CCCN2C(=O)[C@H](CCSC)NC(=O)[C@H](CC(C)C)NC(=O)[C@H](C)NC(=O)[C@H](CC(=O)NO)NC(=O)[C@H](CCC(N)=O)NC(=O)CNC(=O)[C@H](Cc2ccc(O)cc2)NC(=O)[C@H](CO)NC1=O
notes: also called peptide 12
B5: rhesus theta defensin-1 (RTD-1) 16, cyclo[GFCRCLCRRGVCRCICTR] (peptide)
peptide: cyclo(GFCRCLCRRGVCRCICTR)
modifications: disulfide (positions not given here); not fully specified; printed as cyclo[GFCRCLCRRGVCRCICTR]
notes: also called peptide 16; native RTD-1
B6: Asn(OH)-RTD1 17, cyclo[SYCN(OH)CLCRRGVCRCICTI] (peptide)
peptide: cyclo(SYC[Asn(OH)]CLCRRGVCRCICTI)
modifications: disulfide (positions not given here); not fully specified (bridges); printed as cyclo[SYCN(OH)CLCRRGVCRCICTI]; also: oxidatively folded disulfides, pairing not given here
notes: also called peptide 17; grafted peptide 17
B7: Asn(OH)-APP-IP peptide 9, ISYGNN(OH)ALMP (peptide)
peptide: ISYGN[Asn(OH)″]ALMP-NH2
modifications: N-terminus assumed
SMILES: CC[C@H](C)[C@H](N)C(=O)N[C@@H](CO)C(=O)N[C@@H](Cc1ccc(O)cc1)C(=O)NCC(=O)N[C@@H](CC(N)=O)C(=O)N[C@@H](CC(=O)NO)C(=O)N[C@@H](C)C(=O)N[C@@H](CC(C)C)C(=O)N[C@@H](CCSC)C(=O)N1CCC[C@H]1C(N)=O
notes: Linear 10-mer; also called linear Asn(OH)-APP-IP peptide 9
B8: cyclo[ISYGQN(OH)ALMP] (peptide)
peptide: cyclo(ISYGQ[Asn(OH)″]ALMP)
SMILES: CC[C@H](C)[C@@H]1NC(=O)[C@@H]2CCCN2C(=O)[C@H](CCSC)NC(=O)[C@H](CC(C)C)NC(=O)[C@H](C)NC(=O)[C@H](CC(=O)NO)NC(=O)[C@H](CCC(N)=O)NC(=O)CNC(=O)[C@H](Cc2ccc(O)cc2)NC(=O)[C@H](CO)NC1=O
notes: also called peptide 10
B9: β-amyloid precursor protein-derived inhibitory peptide (APP-IP) 8, ISYGNDALMP (peptide)
peptide: ISYGNDALMP-NH2
notes: Linear 10-mer; also called peptide 8; linear APP-IP 8
B10: cyclo[…(OH)ALMPSGQYM] (peptide)
peptide: cyclo(ATRSGISYGQ[Asn(OH)″]ALMPSGQYM)
SMILES: CC[C@H](C)[C@@H]1NC(=O)CNC(=O)[C@H](CO)NC(=O)[C@H](CCCNC(=N)N)NC(=O)[C@H]([C@@H](C)O)NC(=O)[C@H](C)NC(=O)[C@H](CCSC)NC(=O)[C@H](Cc2ccc(O)cc2)NC(=O)[C@H](CCC(N)=O)NC(=O)CNC(=O)[C@H](CO)NC(=O)[C@@H]2CCCN2C(=O)[C@H](CCSC)NC(=O)[C@H](CC(C)C)NC(=O)[C@H](C)NC(=O)[C@H](CC(=O)NO)NC(=O)[C@H](CCC(N)=O)NC(=O)CNC(=O)[C@H](Cc2ccc(O)cc2)NC(=O)[C@H](CO)NC1=O
notes: also called peptide 15
B11: cyclo[SISYGQN(OH)ALMPG] (peptide)
peptide: cyclo(SISYGQ[Asn(OH)″]ALMPG)
SMILES: CC[C@H](C)[C@@H]1NC(=O)[C@H](CO)NC(=O)CNC(=O)[C@@H]2CCCN2C(=O)[C@H](CCSC)NC(=O)[C@H](CC(C)C)NC(=O)[C@H](C)NC(=O)[C@H](CC(=O)NO)NC(=O)[C@H](CCC(N)=O)NC(=O)CNC(=O)[C@H](Cc2ccc(O)cc2)NC(=O)[C@H](CO)NC1=O
B12: Asp-RTD-1 18, cyclo[SYCDCLCRRGVCRCICTI] (peptide)
peptide: cyclo(SYCDCLCRRGVCRCICTI)
modifications: disulfide (positions not given here); also: oxidatively folded, disulfide pairing not given here
notes: Obtained by NaIO4 oxidation of Asn(OH)-RTD-1 17; also called peptide 18
B13: Asn-RTD-1 19, cyclo[SYCNCLCRRGVCRCICTI] (peptide)
peptide: cyclo(SYCNCLCRRGVCRCICTI)
modifications: disulfide (positions not given here); also: oxidatively folded disulfides, pairing not given here
notes: also called peptide 19

Assays:
[1] = biological target: T1, matrix metalloprotease 2 (MMP2); test: MMP2 FRET-substrate inhibition assay; Ki = IC50/(1+[S]0/Km)
Description: (§1) The inhibitory activity of the peptides was determined by measuring the MMPs' protease activity towards a FRET substrate. […] MMP2 was pre-incubated with the peptide inhibitors for 10 min before adding the substrate.

[2] = biological target: T1, matrix metalloprotease 2 (MMP2); test: cell-based or functional assay
[3] = biological target: trypsin; test: trypsin FRET-substrate inhibition assay; Ki = IC50/(1+[S]0/Km)
trypsin, sequence (P00760 24-246): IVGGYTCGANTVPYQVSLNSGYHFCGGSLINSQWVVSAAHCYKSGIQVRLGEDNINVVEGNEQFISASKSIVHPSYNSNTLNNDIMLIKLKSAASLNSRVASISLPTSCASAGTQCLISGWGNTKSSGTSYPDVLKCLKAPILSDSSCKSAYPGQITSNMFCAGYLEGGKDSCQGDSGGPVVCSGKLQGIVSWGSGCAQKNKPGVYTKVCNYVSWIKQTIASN

[4] = biological target: trypsin; test: cell-based or functional assay
[5] = biological target: T1, matrix metalloprotease 2 (MMP2); test: MMP2 and MMP9 FRET-substrate inhibition assays
Description: as §1

[6] = biological target: T1, matrix metalloprotease 2 (MMP2); test: MMP2 FRET-substrate inhibition assay
Description: as §1

[7] = biological target: MMP9 (UniProt P14780 107-707, limits assumed); test: MMP9 FRET-substrate inhibition assay; Ki = IC50/(1+[S]0/Km)
MMP9, sequence (P14780 107-707 limits assumed): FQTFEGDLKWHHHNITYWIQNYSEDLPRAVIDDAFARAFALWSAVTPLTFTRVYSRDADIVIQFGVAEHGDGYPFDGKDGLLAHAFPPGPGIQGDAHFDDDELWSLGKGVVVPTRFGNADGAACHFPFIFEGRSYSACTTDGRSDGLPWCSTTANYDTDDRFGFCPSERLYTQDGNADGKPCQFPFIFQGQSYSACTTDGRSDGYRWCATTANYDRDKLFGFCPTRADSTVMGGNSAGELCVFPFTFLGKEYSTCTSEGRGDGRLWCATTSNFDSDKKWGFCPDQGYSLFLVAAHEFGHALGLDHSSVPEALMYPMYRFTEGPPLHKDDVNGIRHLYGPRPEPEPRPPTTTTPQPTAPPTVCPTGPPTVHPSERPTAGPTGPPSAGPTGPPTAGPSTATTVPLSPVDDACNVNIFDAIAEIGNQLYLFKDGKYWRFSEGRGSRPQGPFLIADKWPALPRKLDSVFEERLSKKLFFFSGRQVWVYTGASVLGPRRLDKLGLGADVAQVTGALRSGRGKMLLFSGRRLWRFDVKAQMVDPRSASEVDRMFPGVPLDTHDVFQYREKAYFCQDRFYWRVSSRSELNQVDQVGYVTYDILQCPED
Description: as §1

| Binder | Ki [1] | IC50 [2] | further results |
| --- | --- | --- | --- |
| B1 | 2180 nM | 3340 nM |  |
| B2 |  |  | Ki [3]: 0.18 nM; IC50 [4]: 2.01 nM |
| B3 | 12000 nM | 18400 nM |  |
| B4 | 6980 nM | 10700 nM |  |
| B5 | 60 nM |  |  |
| B6 | 2.8 nM |  | fold more potent towards MMP2 than MMP9 [5]: ~1000 fold; fold better binding affinity against Asn-RTD-1 19 [6]: 13 fold; fold better binding affinity against Asp-RTD-1 18 [6]: 2.3 fold; fold improvement of Ki against the linear Asn(OH)-APP-IP peptide 9 [6]: 8.2 fold; Ki [7]: 2680 nM |
| B7 | 23 nM | 35 nM | fold improvement of inhibitory activity against APP-IP 8 [6]: 2.6 fold |
| B8 | 21300 nM | 32500 nM |  |
| B9 | 60 nM | 92 nM |  |
| B10 | 231 nM | 354 nM |  |
| B11 |  | > 100000 nM |  |
| B12 | 6.5 nM |  | Ki [7]: 3290 nM |
| B13 | 36.5 nM |  | Ki [7]: 5590 nM |
